Measured values: patent US20220177579A1 (Memorial Sloan Kettering, published 2022)

Biological target: T1, human CD19 on CD19(+) NALM6 acute lymphoid leukemia cells (human, UniProt P15391 20-556)
T1 sequence: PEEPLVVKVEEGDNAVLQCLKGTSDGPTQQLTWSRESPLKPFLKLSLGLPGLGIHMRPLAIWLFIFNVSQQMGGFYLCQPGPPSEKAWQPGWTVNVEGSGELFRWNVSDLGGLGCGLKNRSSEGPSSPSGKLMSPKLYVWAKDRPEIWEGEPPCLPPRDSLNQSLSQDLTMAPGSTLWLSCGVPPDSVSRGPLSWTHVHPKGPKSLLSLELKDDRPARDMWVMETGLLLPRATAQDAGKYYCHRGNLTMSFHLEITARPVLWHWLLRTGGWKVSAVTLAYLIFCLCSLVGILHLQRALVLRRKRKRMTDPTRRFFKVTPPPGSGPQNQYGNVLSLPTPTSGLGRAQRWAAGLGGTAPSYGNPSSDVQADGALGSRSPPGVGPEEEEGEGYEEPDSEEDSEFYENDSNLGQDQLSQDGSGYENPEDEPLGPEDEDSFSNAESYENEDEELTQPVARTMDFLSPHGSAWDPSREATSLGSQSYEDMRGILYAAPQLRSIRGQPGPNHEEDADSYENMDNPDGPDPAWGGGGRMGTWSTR
Assay: cell-based or functional assay

B1: CD19-BsAb BC250 (hFMC63 VL-2/VH-1b x CD3 IgG-scFv bispecific antibody) (bispecific antibody)
heavy: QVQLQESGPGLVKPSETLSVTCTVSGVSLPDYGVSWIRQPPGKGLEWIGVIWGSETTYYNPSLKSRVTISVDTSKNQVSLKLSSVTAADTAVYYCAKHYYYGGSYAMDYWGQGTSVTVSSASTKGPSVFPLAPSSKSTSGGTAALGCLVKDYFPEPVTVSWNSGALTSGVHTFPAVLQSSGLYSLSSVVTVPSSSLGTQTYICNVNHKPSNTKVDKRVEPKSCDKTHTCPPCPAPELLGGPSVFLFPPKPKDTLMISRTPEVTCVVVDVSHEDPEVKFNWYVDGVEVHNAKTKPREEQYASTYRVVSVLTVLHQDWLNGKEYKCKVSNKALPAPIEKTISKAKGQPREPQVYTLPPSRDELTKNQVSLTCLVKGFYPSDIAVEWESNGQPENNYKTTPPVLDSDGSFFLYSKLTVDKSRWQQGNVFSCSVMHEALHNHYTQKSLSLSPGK
light: DIQMTQSPSSLSASVGDRVTITCQASQDISKYLNWYQQKPGKAVKLLIYHTSRLHSGVPSRFSGSGSGTDYTLTISSLQPEDIATYFCQQGNTLPYTFGGGTKLEITRTVAAPSVFIFPPSDEQLKSGTASVVCLLNNFYPREAKVQWKVDNALQSGNSQESVTEQDSKDSTYSLSSTLTLSKADYEKHKVYACEVTHQGLSSPVTKSFNRGECTSGGGGSGGGGSGGGGSQVQLVQSGGGVVQPGRSLRLSCKASGYTFTRYTMHWVRQAPGKCLEWIGYINPSRGYTNYNQKFKDRFTISRDNSKNTAFLQMDSLRPEDTGVYFCARYYDDHYSLDYWGQGTPVTVSSGGGGSGGGGSGGGGSGGGGSGGGGSGGGGSDIQMTQSPSSLSASVGDRVTITCSASSSVSYMNWYQQTPGKAPKRWIYDTSKLASGVPSRFSGSGSGTDYTFTISSLQPEDIATYYCQQWSSNPFTFGCGTKLQITR
  EC50 for cell lysis of NALM6 cells (standard 4-hour 51Cr release assay with activated T cells): 42 fM
